From patent publication US20230265151A1, “GIP/GLP1 CO-AGONIST COMPOUNDS” (priority 2020, published 2023)
*1 amine or outer side, *2 acyl side, *3 side chain or, on linkers, in order; H or OH if unused. Where no end group is shown, it is not given here. Side-chain parts run from the residue outwards. [ ]: non-standard residue; d: D form. The star is where a group is joined. αMePhe(2-F) = C[C@](N)(Cc1ccccc1F)C(=O)O; γGlu = O=C(O)[C@H](CCC(=O)[*:2])N[*:1]; C14 diacid = O=C(O)CCCCCCCCCCCCC(=O)*; αMeY = C[C@](N)(Cc1ccc(O)cc1)C(=O)O; αMeF = C[C@](N)(Cc1ccccc1)C(=O)O; αMeL = CC(C)C[C@](C)(N)C(=O)O; Orn = NCCC[C@H](N)C(=O)O; AEEA = NCCOCCOCC(=O)O; Aib = CC(C)(N)C(=O)O

B1: Example 138 (peptide)
peptide: YXEGTXTSDXSIXLDXKAQXEFIKXLIEGGPSSGAPPPS
modifications: Aib2, αMeF(2F)6, 4Pal10, αMeL13, Orn16, Aib20, αMeY25, K17 and K24: K(AEEA2-(γ-Glu)-CO-(CH2)10-CH3), C-terminal NH2
B2: Example 117 (peptide)
peptide: YXEGTXTSDXXIXLDXKAQXEXIKXLIEGGPSSGAPPPS
modifications: Aib2, αMeF(2F)6, 4Pal10, Aib11, αMeL13, Orn16, Aib20, αMeF22, αMeY25, K17 and K24: K(AEEA2-(γ-Glu)-CO-(CH2)12-CO2H), C-terminal NH2
B3: Example 134 (peptide)
peptide: YXEGTXTSDXSIXLDXKAQXEFIXXLIEGKPSSGAPPPS
modifications: Aib2, αMeF(2F)6, 4Pal10, αMeL13, Orn16, Aib20, D-Glu24, αMeY25, K17 and K30: K(AEEA2-(γ-Glu)-(4-(4-tert-butylphenyl)butanoyl)), C-terminal NH2
B4: Example 122 (peptide)
peptide: YXEGTXTSDVSIXLDXKAQXEXIKXLIEGGPSSGAPPPS
modifications: Aib2, αMeF(2F)6, αMeL13, Orn16, Aib20, αMeF22, αMeF25, K17 and K24: K(AEEA2-(γ-Glu)-CO-(CH2)12-CO2H), C-terminal NH2
B5: Example 11 (peptide)
peptide: YXEGTXTSDXSIXLDXKAQXEFIXXLIEGGKSSGAPPPS
modifications: Aib2, αMeF(2F)6, 4Pal10, αMeL13, Orn16, Aib20, D-Glu24, αMeY25, K17 and K31: K(AEEA-(γ-Glu)-CO-(CH2)12-CO2H), C-terminal NH2
B6: Example 127 (peptide)
peptide: YXEGTXTSDXSIXLDXKAQXKFIXXLIEGGPSSGAPPPS
modifications: Aib2, αMeF(2F)6, 4Pal10, αMeL13, Orn16, Aib20, D-Glu24, αMeY25, K17 and K21: K(AEEA2-(γ-Glu)-(10-(4-carboxyphenoxy)decanoyl)), C-terminal NH2
B7: Example 121 (peptide)
peptide: YXEGTXTSDXXIXLDXKAQXEXIKXLIEGGPSSGAPPPS
modifications: Aib2, αMeF(2F)6, 4Pal10, Aib11, αMeL13, Orn16, Aib20, αMeF22, αMeF25, K17 and K24: K(AEEA2-(γ-Glu)-CO-(CH2)12-CO2H), C-terminal NH2
B8: Example 124 (peptide)
peptide: YXEGTXTSDXSIXLDXKAQXEXIKXLIEGGPSSGAPPPS
modifications: Aib2, αMeF(2F)6, Ac5c10, αMeL13, Orn16, Aib20, αMeF22, αMeF25, K17 and K24: K(AEEA2-(γ-Glu)-CO-(CH2)12-CO2H), C-terminal NH2
B9: Example 114 (peptide)
peptide: YXEGTXTSDVSIXLDXKAQXEFIKXLIEGGPSSGAPPPS
modifications: Aib2, αMeF(2F)6, αMeL13, Orn16, Aib20, αMeY25, K17 and K24: K(AEEA2-(γ-Glu)-CO-(CH2)12-CO2H), C-terminal NH2
B10: Example 128 (peptide)
peptide: YXEGTXTSDXSIXLDXKAQXEFIKXLIEGGPSSGAPPPS
modifications: Aib2, αMeF(2F)6, 4Pal10, αMeL13, Orn16, Aib20, αMeY25, K17 and K24: K(AEEA2-(γ-Glu)-(10-(4-carboxyphenoxy)decanoyl)), C-terminal NH2
B11: Example 133 (peptide)
peptide: YXEGTXTSDXSIXLDXKAQXEFIXXLIKGGPSSGAPPPS
modifications: Aib2, αMeF(2F)6, 4Pal10, αMeL13, Orn16, Aib20, D-Glu24, αMeY25, K17 and K28: K(AEEA2-(γ-Glu)-(4-(4-tert-butylphenyl)butanoyl)), C-terminal NH2
B12: Example 130 (peptide)
peptide: YXEGTXTSDKSIXLDXKAQXEFIXXLIEGGPSSGAPPPS
modifications: Aib2, αMeF(2F)6, αMeL13, Orn16, Aib20, D-Glu24, αMeY25, K10 and K17: K(AEEA2-(γ-Glu)-(4-(4-tert-butylphenyl)butanoyl)), C-terminal NH2
B13: Example 131 (peptide)
peptide: YXEGTXTSDXSIXLDXKAQXKFIXXLIEGGPSSGAPPPS
modifications: Aib2, αMeF(2F)6, 4Pal10, αMeL13, Orn16, Aib20, D-Glu24, αMeY25, K17 and K21: K(AEEA2-(γ-Glu)-(4-(4-tert-butylphenyl)butanoyl)), C-terminal NH2

Key:
Experiment in all cases: cell-based or functional assay
human GLP-1 receptor = human GLP-1 receptor (human, UniProt P43220 24-463)
human glucagon receptor = human glucagon receptor (human, UniProt P47871 26-477)
human GIP receptor = biological target: T1, human GIP receptor (human, UniProt P48546 22-466)
T1 sequence (looked up): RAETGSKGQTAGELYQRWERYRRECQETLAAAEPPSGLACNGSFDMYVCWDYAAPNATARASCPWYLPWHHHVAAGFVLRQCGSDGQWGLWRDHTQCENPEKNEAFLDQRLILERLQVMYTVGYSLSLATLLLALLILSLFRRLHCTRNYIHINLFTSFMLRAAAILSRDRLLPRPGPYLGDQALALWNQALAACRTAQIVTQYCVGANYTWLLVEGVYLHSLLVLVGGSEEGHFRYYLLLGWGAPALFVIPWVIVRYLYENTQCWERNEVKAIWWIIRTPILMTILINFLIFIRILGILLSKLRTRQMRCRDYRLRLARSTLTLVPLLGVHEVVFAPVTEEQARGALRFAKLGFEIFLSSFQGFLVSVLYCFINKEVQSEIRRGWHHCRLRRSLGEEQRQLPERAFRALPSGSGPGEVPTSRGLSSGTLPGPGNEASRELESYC

Row | Binder | EC50, cAMP (human GLP-1 receptor) [nM] | EC50, cAMP (human glucagon receptor) [nM] | EC50, cAMP (human GIP receptor) [nM] | Emax, cAMP (human GLP-1 receptor) [%] | Emax, cAMP (human GIP receptor) [%]
1 | B1 | 0.267 | > 9950 | 0.0197 |  | 
2 | B2 | 5.6 | > 9950 | 0.0352 | 98.2 | 96.4
3 | B3 | 0.577 | > 9950 | 0.0238 |  | 
4 | B4 | 0.41 | > 9950 | 0.064 | 94.3 | 
5 | B5 | 0.511 | > 9950 | 0.0135 |  | 
6 | B6 | 0.762 | > 9950 | 0.027 |  | 
7 | B7 | 8.95 | > 9950 | 0.0271 |  | 92.8
8 | B8 | 1.24 | > 9950 | 0.1 | 93.3 | 
9 | B9 | 0.176 | > 9950 | 0.0613 | 91.7 | 93.8
10 | B10 | 0.293 | > 9950 | 0.0232 |  | 
11 | B11 | 0.258 | > 9950 | 0.018 |  | 
12 | B12 | 0.204 | > 9950 | 0.0266 | 100 | 94.7
13 | B13 | 0.19 | > 9950 | 0.0156 |  | 
14 | Y[Aib]EGT[αMePhe(2-F)]TSDV[Aib]I[αMeL]LD[Orn]K([AEEA-AEEA-γGlu-C14 diacid])AQ[Aib]EFIK([AEEA-AEEA-γGlu-C14 diacid])[αMeY]LIEGGPSSGAPPPS-NH2 [Example 115] | 0.16 | > 9950 | 0.103 | 91.6 | 
15 | Y[Aib]EGT[αMePhe(2-F)]TSDV[Aib]I[αMeL]LD[Orn]K([AEEA-AEEA-γGlu-C14 diacid])AQ[Aib]E[αMeF]IK([AEEA-AEEA-γGlu-C14 diacid])[αMeY]LIEGGPSSGAPPPS-NH2 [Example 119] | 0.351 | > 9950 | 0.0863 | 99.4 | 
